The data set in a line: yeast display, Sf9 membrane polyspecificity reagent, FACS + sequencing; frameworks hold sequencing errors. In outline:
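Sorting gates, low and high (top ~1%), were placed on anti-HA fluorescence to track expression and on streptavidin fluorescence to track reagent binding. A clone's polyreactivity label is taken from the gate it came out of. The reagent was 10% biotinylated, detergent-solubilized Sf9 membrane, applied for 1 hour at 4 °C to galactose-induced yeast display cells.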
Take “QVQLVESGGGLVQAGGSLRLSCAASGRIFKYYAKGWYRQAPGKERELVAAITSSGVSTYADSVKGRFTISRDNAKNTVYLQMNSLKPEDTAVYYCAADYVREGLGYDYWGQGTQVTVSS”: the “polyreactivity (PSR sort gate)” value is recorded as “low polyreactivity”.

On to “QVQLVESGGGLVQAGGSLRLSCAASGRIFKYYAMGWYRQSPGKERELVAAITSSGGSTYYADSVKGRFTISRDNAKNTVYLQMNRLKPEDTAVYYCAARGPKQLYPGYIYGYWGQGTQVTVSS”, for which the “polyreactivity (PSR sort gate)” value was “low polyreactivity”. As for “QVQLVESGGGLVQAGGSLRLSCAASGRIFKYYARGWYRQAPGKERELVAAISGSGGTHYADSVKGRFTISRDNAKNTVYLQMNSLKPEDTAVYYCAVRWRGNGQGGSWGQGTQVTVSS”, the entry is “high polyreactivity”; as for “QVQLVESGGGLVQAGGSLRLSCAASGRIFKYYTLGWYRQAPGKERELVAAITSRGGTTYYADSVKGRFTISRDNAKNTVYLQMNSLKPEDTAVYDCAKKRVFRHYYYYATYDYWGQGTQVTVSS”, “low polyreactivity”. As for “QVQLVESGGGLVQAGGSLRLSCAASGRIFKYYVMGWYRQAPGKERELVAAISSGSGSTYYADSVKGRFTISRDNAKNTVYLQMNSLKPEDTAVYYCNALSSWRRTYGSRYDYWGQGTQVTVSS”, the entry is “high polyreactivity”. In the case of “QVQLVESGGGLVQAGGSLRLSCAASGRIFLANAMGWYRQAPGKERELVAAISYSGGSTYYADSVKGRFTISRDNAKNTVYLQMNSLKPEDTAVYYCAADAFTWYTGRAWKYYYWGQGTQVTVSS”, the “polyreactivity (PSR sort gate)” value is recorded as “low polyreactivity”. “QVQLVESGGGLVQAGGSLRLSCAASGRIFLDYVMGWYRQAPGKEREVVAAISWSGDRTDYADSVKGRFTISLDNAKNTVYLQMNSLKPEDTAVYYCATTWYFAYSDDYKFDYWGQGTQVTVSS”: the “polyreactivity (PSR sort gate)” value is given as “low polyreactivity”. Next, “QVQLVESGGGLVQAGGSLRLSCAASGRIFLGYAMGWYRQAPGKERELVAAITFSGGSTYYADSVKGRFTISRDNAKNTVYLQMNSLKPEDTAVYYCAAPRLRRTYPRNRYDYWGQGTQVTVSS”: “low polyreactivity”; “QVQLVESGGGLVQAGGSLRLSCAASGRIFLHYAMGWYRQAPGKERELVAAISRSGGSTYYADSVKGRFTISRDNAKNTVYLQMNSLKPEDTAVYYCAAAYPFKTTEGYYYWGQGTQVTVSS”: “high polyreactivity”. With “QVQLVESGGGLVQAGGSLRLSCAASGRIFLKYAMGWYRQAPGKERELVAAISRRGASTYYADSVKGRFTISRDNSKNTVYLQMNSLKPEDTAVYYCKARTSSGMDYWGQGTQVTVSS”, the “polyreactivity (PSR sort gate)” value is “high polyreactivity”. As for “QVQLVESGGGLVQAGGSLRLSCAASGRIFLLNAMGWYRQAPGKERELVAAITSGGTTYYADSVKGRFTISRDNAKNTVYLQMNSLKPEDTAVYYCAAEAGYFTYGRRDYWGQGTQVTGSS”, the entry is “low polyreactivity”. Next, “QVQLVESGGGLVQAGGSLRLSCAASGRIFLLNPMGWNRQATGKERELVARNSSGRTYYADSVKGRFTISRVNAKNTVYLHMKSLKPEDTAVYYCNATVSSSKYRYFYVNPYDYWGQGTQVTVSS”: “low polyreactivity”. As for “QVQLVESGGGLVQAGGSLRLSCAASGRIFLRNAMGWYRPAPGKERELVAGISSIGGITYYADSVKGRFTISRDNAKNTVYLQMNILKPEDTAVYYCAKGLYLHTSGHGPYDYWGQGTQVTVSS”, the entry is “low polyreactivity”. For “QVQLVESGGGLVQAGGSLRLSCAASGRIFLRNVMGWYRQAPGKERELVAAISARGGSTYYADSVKGRFTISRDNGKNSVYLQMNSLKPEDTAVYYCAAGYPVSPSKYYYWGQGTQVTVSS”, the “polyreactivity (PSR sort gate)” value is given as “high polyreactivity”.

For “QVQLVESGGGLVQAGGSLRLSCAASGRIFLRYAMGWYRQAPGKEREFVAAISYVGGSTYYADSVKGRFTISRDNAKNTVYLQMNILKPEDTAVYYCNADVPKSLLLYYPWGYGFWGQRTQVTVSS”, the “polyreactivity (PSR sort gate)” value is recorded as “low polyreactivity”. As for “QVQLVESGGGLVQAGGSLRLSCAASGRIFLTNAMGWYRQAPGKERELVAAITSGGSTYYADSVKGRFTISRDNAKNTVYLQMNSLKPEDTAVYYCNADTDRYWPYEYDYWGQGSQVTVSS”, the entry is “low polyreactivity”; as for “QVQLVESGGGLVQAGGSLRLSCAASGRIFLVYAMGWYRQAPGKERELVAAIRSGGSTYYADSVKGRFTISRDNAKNTVYLQMNSLKPEVTAVYYCIADSPWYWVRYGVSRRDYWGQGTQVTVSS”, “low polyreactivity”. Regarding “QVQLVESGGGLVQAGGSLRLSCAASGRIFLWYAMGWYRKAPGKERELVADISSNGGSTRYADSVKGRFAISRDNEKNTVYLQMNILKPEDTAVYYCNADVHWNRYRYGGNGYGYWGQGTQVTVSS”, the “polyreactivity (PSR sort gate)” value is “low polyreactivity”. As for “QVQLVESGGGLVQAGGSLRLSCAASGRIFLWYAMGWYRQAPGKERELVASITRSGVTTYYADSVKGRFTISRDNAKNTVYLQMKSLKPEDTAVYYCNKDFRGDAIKLDVNYWGQGTQVTVSS”, the “polyreactivity (PSR sort gate)” value was “low polyreactivity”.

For the sequence “QVQLVESGGGLVQAGGSLRLSCAASGRIFLYNAMGWYRQAPGKERELVAVISSNGGRTYYADSVKGRFTISRDNAKNTVYLQMNSLKPEDTAVYYCAAVQHYVTHMDYWGQGTQVTVSS”, the “polyreactivity (PSR sort gate)” value is “low polyreactivity”. As for “QVQLVESGGGLVQAGGSLRLSCAASGRIFLYNTMGWYRQAPGKERELVARISWSGGSTKYADSVKGRFTISRDNAKNTVYLQMNSLKPEDTAVYYCNAGYFTEYNSWGQGTQVTVSS”, the entry is “high polyreactivity”. Next, “QVQLVESGGGLVQAGGSLRLSCAASGRIFLYYAMGWYRQAPGKERELVATISSGGSTHYADSVKGRFTISRDNAKNTVYLQMNSLKPEDTAVYYCAAYGYGWGLEPSTTEMDYWGQGTQVTVSS”: “low polyreactivity”; “QVQLVESGGGLVQAGGSLRLSCAASGRIFLYYTMGWYRQAPGKERELDAAITRSGGSTYYADSVKGRFTISRDNAKNTVYLQMNSLKPEDTAVYYCNRAYVRYVPMNYWGQGTQVTVSS”: “high polyreactivity”; “QVQLVESGGGLVQAGGSLRLSCAASGRIFNAYAMGWYRQAPGKERELVAAISSIGGRTYYADSVKGRFTISRDNAKNTDYLQMNSLKPEDTAVYYCAASRRSRQYRYDYWGQGTQVTVSS”: “high polyreactivity”. As for “QVQLVESGGGLVQAGGSLRLSCAASGRIFNFYAMGWYRQAPGKERELVAAITRGGSTYYADSVKGRFTISRDNAKNTVYLQMNSLKPEDTAVYYCNALNRYYDGDYYYWGQGTQVTVSS”, the entry is “high polyreactivity”; as for “QVQLVESGGGLVQAGGSLRLSCAASGRIFNGYAMGWYRQAPGKERELVAAITTSGGSTYYADSVKGRFTISRDNAKNTVYLQMNSLKPEDTAVYYCAKYYPRYAYDYWGQGTQVTVSS”, “low polyreactivity”.

As to “QVQLVESGGGLVQAGGSLRLSCAASGRIFNHNDMGWYRQAPGKERELVAAIDGSDSSTYYADSVKGRFTISRDNAKNTVYLQMNSLKTEDTAVYYCNADTNWLYTTGKYDYWGQGTQVTVSS”, the “polyreactivity (PSR sort gate)” value is “low polyreactivity”.

On to “QVQLVESGGGLVQAGGSLRLSCAASGRIFNIYAMGWYRQAPGKERELVAAIRGRGGSTYYADSVKGRFTISRDNAKNTVYLQMNSLKPEDTAVYYCAADSGPFYSKTQTRYGYWGQGTQVTVSS”, for which the “polyreactivity (PSR sort gate)” value is listed as “high polyreactivity”. Next, “QVQLVESGGGLVQAGGSLRLSCAASGRIFNIYAMGWYRQAPGKERELVAAISGSGGRTSYADSVKGRFTISRDNAKNTVYLQMNSLKPEDTAVYYCAADYSYYTSFRYDYWGQGTQVTVSS”: “low polyreactivity”; “QVQLVESGGGLVQAGGSLRLSCAASGRIFNLYAMGWYRQAPGKERELVAAISYSGGRTYYADSVKGRFTISRDNAKNTVYLQMNSLKPEDTAVYYCNTVRGSVRQAGVGYDYWGQGTQVTVSS”: “high polyreactivity”; “QVQLVESGGGLVQAGGSLRLSCAASGRIFNLYAMGWYRQAPGKERELVAGIRWSTGSTYYADSVKGRFTISRDNAKNTVYLQMNSLKPEDTAVDYCAVRYYCSGRYYYTYYSWGQGTLVTVSS”: “high polyreactivity”. As for “QVQLVESGGGLVQAGGSLRLSCAASGRIFNPNGMGWYRQAPGKERELVAVITRSGTSTYADSVKGRFTISRDNAKNTVYLQMNSLKPEDTAVYYFATRYRWTPYDYWGQGTQVTVSS”, the entry is “low polyreactivity”; as for “QVQLVESGGGLVQAGGSLRLSCAASGRIFNPYVMGWYRPAPGKERELVAAISSGGRTYYADSVKGRFTISRDNAKNTVYLQMNSLKPEDTTVYYCAREQYRRYSGYGYWGQGTQVTVSS”, “high polyreactivity”. Turning to “QVQLVESGGGLVQAGGSLRLSCAASGRIFNQYCMGWYRQAPGKERELVAAIRSGDSTNYADSVKGRFTISRDNAKNTVYLQMNSLKPEDTAVYYCARDRPGDYAGYDYWGQGTQVTVSS”, the “polyreactivity (PSR sort gate)” value is “low polyreactivity”.

For the sequence “QVQLVESGGGLVQAGGSLRLSCAASGRIFNQYGMGWYRQAPGQEMELVAAIRSGDSTNYADSVKGRFTISRDNAKNTVYLQMNSLKPEVTAVYYCARDRPGDYAGYDYWGQGTEVTVSS”, the “polyreactivity (PSR sort gate)” value is “low polyreactivity”. Next, “QVQLVESGGGLVQAGGSLRLSCAASGRIFNRNAMGWYRQAPGKERELVAAITRGGRTNYADSVKGRFTISRDNAQNTVYLQMNSLKPEDTAVYYCAAAYYGSHGRYDYWVQGTQVTVSS”: “high polyreactivity”.

For the sequence “QVQLVESGGGLVQAGGSLRLSCAASGRIFNRNVMGWYRQAPGKERELVAAISYGTGSTYYADSVKGRFTISRDNAKNTVYLQMNSLKPEDTAVYYCATRYRVRDDGEYDYWGHGTQVTVSS”, the “polyreactivity (PSR sort gate)” value is given as “high polyreactivity”. Next, “QVQLVESGGGLVQAGGSLRLSCAASGRIFNRYAMGLYSQAPGKERELVAAISYTGGRTYYADSVKGRFTISRDNAKNTVYLQRNCLTPEDTAVYYCNVYVIHWDFTTSSVRRFDYWGQGTQVNVSS”: “high polyreactivity”. Regarding “QVQLVESGGGLVQAGGSLRLSCAASGRIFNRYGMGWYRQAPGKERELVAAITWRGGNTYYADSVKGRFTISRDNAKNTVYLQMNSLKPEDTAVYYCAADGGYSAYFGAYDYWGQGTQVTVSS”, the “polyreactivity (PSR sort gate)” value is given as “high polyreactivity”. For “QVQLVESGGGLVQAGGSLRLSCAASGRIFNSNTMGWYRQAPGKERELVAAITYSGGSTYYADSVKGRFSISRDNAKNTVYLQMNSLKPEDTAVYYCAASYYYGRRYDYWGQGTQVTVSS”, the “polyreactivity (PSR sort gate)” value is reported as “low polyreactivity”.

Source of the values: the nanobody polyreactivity screen of Harvey et al. (2022).
